# Measured values published in the nanobody polyreactivity screen of Harvey et al. (2022).
# Test: yeast display, Sf9 membrane polyspecificity reagent, FACS + sequencing; frameworks hold sequencing errors
# How it was run: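 Galactose-induced (36–48 hours) yeast carrying a synthetic nanobody display library were exposed to 10% biotinylated, detergent-solubilized Sf9 membrane reagent at 4 °C for 1 hour. FACS followed streptavidin microbead enrichment, using low and high (top ~1%) gates for expression (anti-HA) and reagent binding (streptavidin). Colony PCR, MiSeq 2 × 250 sequencing and CDR-length filtering followed. Labels for polyreactivity reflect the gate of origin.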
row,Sequence,polyreactivity (PSR sort gate)
1,EDQLGESGGGLVQAGGSLRLSCAASGRTFYSYARGWSRQAPVKERELVAGINGGGSTYYADSVKGRFTISRDNAKNTVYLQMNSLKPEDSPVYYCAARRYDIRYYYVTYRPPKMYYWGQGTQVTVSS,high polyreactivity
2,EEELVESGGGFVQVGGSLRLSCAASGSIFVENAMGWYRQAPGKARELVAAITSGGSTNYADSVKGRFTISRDNAKNTVYLQMNSLKPEDTAVYYCNADENYGYYTHFGYWGQGTQVTVSS,low polyreactivity
3,EEELVESGGGLVQAGGSLRLSCAASGRTFVYNAMGWYRQAPGKERELVATITRGVSTNYADSVKGRFTISRDNAKNTVYLQMNSLKPEDTAVYYFAAVWYYQFGVWGYYWGQGTQVTVSS,low polyreactivity
4,EVQIVESGGCLVQAGGSLGIRCAASGRIFNIYAMGWYRQAPGKERELFAAISRGGGSKYYADSVKGRFTISRDNAKKTVDLQLNRLKPVDTAVYYCNTDRFPSGRIHRYNYWGQGTQVSVSS,low polyreactivity
5,EVQLVESGGGLLQPGGSLRVSFAASGYIYSRYRMGWYRQAPGKGREFVAAISGGSSTNYADSVKGRFTISRDNSKNTVFLQMNSLRAEDTAVFYCADFKIDSDPRVYWGQGTQVTVSS,low polyreactivity
6,EVQLVESGGGLVQAGGSLRLSCAASGFIFVSYAMGWYRQAPGKERELVAAISWSGGNTYYADSVKGRFTISRDNAKNTVYLQMNSLKPEDTAVYYCNTDKRSYPTHRRDFGYWGQGTQVTVSS,low polyreactivity
7,EVQLVESGGGLVQAGGSLRLSCAASGGTFRYYAMGWSRQAPGKERELVASSSSGGSTNYADSVKGRFTISRDNAKNTVYLQMNRLKPEDTAVYYCARRRFYYGHHPGSSWYDYWGQGTQVSVSS,low polyreactivity
8,EVQLVESGGGLVQAGGSLRLSCAASGRIFKYYTMGWYRQAPGKERELVAAISRDDSTNYADSVKGRFTISRDNAMNTVYLQMNSLKPEDTAVYYCAKGYHQYAGFYYWGQGTQVTVSS,high polyreactivity
9,EVQLVESGGGLVQAGGSLRLSCAASGRTFNRYTMGWYRQAPGKERELVAAISRGAGTNYADSVKGRFTISRDNAKNTVYVQMNSLKPEDTAVYYCNARPYGWYASHEYGYWGQGTQVTVSS,high polyreactivity
10,EVQLVESRGGLVQAGGSLRLSSADSGLTFPYNTMGWYRQAPGTERELVAAITARGGRTYYADSVKGRFTISRDNAKNTVYLQMNSLKPEDTAVYYCNADRTRGYQRYDYWGQGTQVTVSS,high polyreactivity
11,HAQLQESGGGMVQAGGSLRRSCAASGSIILFSGMGWYRRARGKERELVASIGFGSITYYADRVKGRFTISRDNANNTVYLQMNSLKPEDTAVYYCAVQVQDESWLDYWGQGTQVTVSC,low polyreactivity
12,HDHLVESGAGLVQAGGSLRLSCAASGLIFPSNAMGWYRQAPGKERELVAAITNGGRTYYADSVKGRFTISRDNATNTVYLQMNSMKPEDTSVYYCNAGYTYRGYWSYGYWGQGTQVTVSS,high polyreactivity
13,HFQREESGGGLVQAGGSLRLTCAASGSTFGPYVMGWYRQARGKERELVAAISDTTGNTYYADSVKGRFTLSRDNAKNTVYLQMNSLKPEDTAVYYCNVDWYWGDYDYRGQGTQVTVSS,low polyreactivity
14,HLQLVESGGGLVQAGGSLRLSCAASGRIFPGYAMGWYRQAPGKERELVAAIDGTGTSTYYADSVKGRFTISRDNAKNTVDLQMNSLNPEDTAVYYCAADGRPRGTFGYWGQGTQVTVSS,low polyreactivity
15,HLQMQESGGGLVQAGGSLRLSCASSGSIFQATYMGWYRQAPGKEREFVASITYGSITNYADSVKGRFTIGRDNAKDTLYLQMNSLKPEDTAVYYCAVDRHYIPAFHYWGQGTQVTVSS,low polyreactivity
16,HVHQQGSGGGLAQARDSLRLSCAASGTNFSEYNNGLVSQGAGQRTRTCCRYWCWGNTYYADSAKGRLTSSRDNAKYNVDLQKNSLKPEDTAVYYCAFILPYPSRHIDRGQGTQVTVSS,high polyreactivity
17,HVKLQESCGGLVPAGGSLRLSSAASATISYARNMASYLQAPGTERELVAAIDRGASTYYADSVKGLFTISRDNAKNTVYLQIYSLKPEDTAVYYCAAEYHDRWEDRYWGQGTQGTVSS,high polyreactivity
18,HVLLQESGGGLVQAGGTLRLSCAASGTITTDIRMGWYRLAPGKEREFVASIDGCSTTYYADSVKGRFTISRDNAKNTVYLQMNSLKPEDTAMYYCAAREATEFYLFYWGQGTQVTVSS,low polyreactivity
19,HVNLVESGGGLVKAGGSLRLTCDASGITFYEYAMGRYRRAPGKELELVAGIRLSGSTTYYADSVKGRFTISRDNSKNTVYLQMHSLKPEDTAVYYCNVDYYSGLYDYDSWGQGTQVTVSS,low polyreactivity
20,HVQLEESGGGLVQAGGSLRLSCAASGSISRANPSGWSRTAPGKERELLPANSRGGTTTYYADSVKGRFTISRDNAKNTVYLQMNSLKPEDTAVYYCAAVAGGGFPRWRIYFWPKGDYWGQGTQVTVSS,high polyreactivity
21,HVQLGESGGGLVQAGGSLRLSCAASGSTFFPYAMGRYRQAPGKEMELVAAISYSGDSTYYADSVKGRFTISRDTAKNTVYLQMNSLKPEDNAVYYCNAVYFRYRYKYWGQGSQVTVSS,high polyreactivity
22,HVQLQESGGGLVLAGGSLRLSCPASGNIVVYSYMGWYRQAPGKAREFVAAIGAGSTTYYADSVSRFTISRDNAKNSVYLQMNSLKQVDTAVYYCSVEFQYAGFWYWGQGTQVTVSS,low polyreactivity
23,HVQLQESGGGLVQAGGSLRLSCAASGNISYSRNMGWYRQAPGKERELVAAIDRGAITYYADSVKGRFTISRDNAKNTVYLQIYSLKPEDTAVYYCAAEYHDRGDHRYWGQGTQVTVSS,high polyreactivity
24,HVQLQESGGGLVQAGGSLRLSSAASATITYSRNMGWYRQAPGKELELVAAIDRGAITYYADSVKGRFTISRDNAKNTVYLHIYSLKPEDTAVYYCAAVYHDRWDHRFWGQGTQVTVSS,high polyreactivity
25,HVQLQESGGGLVQAGGSLRQSCAASGYIFPYYSMGLYRQAPGKERGLVACIAAGTTTNYADSVKGRFTISRDNAKNTVYLQMNSLKPEDAAVYYCAALNAFNTGHWYWGQGTQVTVSS,low polyreactivity
26,HVQLQESGGGLVQAGGSMRLTCAASGQKSSYYSMGWNRQAPGKEREFVATIAVGGTTNYADSVKGRFTISRDNAKNTVYLQMNSLKPEDTAVCFCAANSTQYTWFDYWGQGTQVPVSS,low polyreactivity
27,HVQLQESGGGLVQVGGSLRLSCAASGTIFIYGFLGWNRQAPGKERELVASINLGGITNYADSVKGRFTIRRDNAKNTVYLQMISLKPEDTAVYYCAAYVVTGQNYGYWGQGTQVTVSS,low polyreactivity
28,HVQLQESGGVLVQARGSLRLSCAASGNISYSRNMGWYRQAPGKERELVDAIDRGAITYYADSVKGRFTISRDNANNTVYLQIYSLKPEDSAVYYCAAEYHDRWDHRYWGQGSQVTVSS,high polyreactivity
29,HVQLVDSGAGLVQAGGSLRLSCAASGRTFAYYAMGWYREATRKERELVAAIDSSGGSTYYADSVKGRFTISRDNAKNTVYLQMNSLKPEDTAVYYCAASYPYDRYDQGGYGYWGQGTQVTVSS,low polyreactivity
30,HVQLVESAGGLVQAGGSLSLSCAASGSTFKLYAMGRYRQAPGKESEFVAGISWRGGSTYYADSVKGRFTISRDNAKNTVYFQMNSLKPEDTAVYYCAARSFSNIGYHGYGYWGQGTQVTVSS,high polyreactivity
